Starred links: 1 amine or outer side, 2 acyl side, 3 side chain; linkers in the order of their positions; H or OH if unused. Positions of bridges follow the written chain, without caps; N, C: chain ends. Non-standard residues stand in square brackets, D forms with d. Primed or numbered codes have the meaning given here. B5(29) = 2-amino-2-(pent-4-en-1-yl)hept-6-enoic acid (2,2-bis(4-pentenyl)glycine), stitching residue bearing both staples, C=CCCCC(CCCC=C)(N[*:1])C(=O)[*:2]; B5(17) = 2,2-bis(4-pentenyl)glycine = 2-amino-2-(pent-4-en-1-yl)hept-6-enoic acid, stitching residue, C=CCCCC(CCCC=C)(N[*:1])C(=O)[*:2]; B5(6) = 2-amino-2-(pent-4-en-1-yl)hept-6-enoic acid (bis(4-pentenyl)glycine), stitching residue, C=CCCCC(CCCC=C)(N[*:1])C(=O)[*:2]; Bta = N[C@@H](Cc1csc2ccccc12)C(=O)O; αAllylPro = C=CC[C@@]1(C(=O)O)CCCN1; S8 = C=CCCCCCC[C@](C)(N)C(=O)O; hSer = N[C@@H](CCO)C(=O)O
T1: full-length beta-Catenin (Uniprot ID P35222) (Homo sapiens (Human), UniProt P35222 2-781)
T1 construct: the AlphaScreen assay uses a Histidine (Nickel Chelate) detection kit, so a His tag is likely there; also called B-Catenin; bCat
T1 sequence: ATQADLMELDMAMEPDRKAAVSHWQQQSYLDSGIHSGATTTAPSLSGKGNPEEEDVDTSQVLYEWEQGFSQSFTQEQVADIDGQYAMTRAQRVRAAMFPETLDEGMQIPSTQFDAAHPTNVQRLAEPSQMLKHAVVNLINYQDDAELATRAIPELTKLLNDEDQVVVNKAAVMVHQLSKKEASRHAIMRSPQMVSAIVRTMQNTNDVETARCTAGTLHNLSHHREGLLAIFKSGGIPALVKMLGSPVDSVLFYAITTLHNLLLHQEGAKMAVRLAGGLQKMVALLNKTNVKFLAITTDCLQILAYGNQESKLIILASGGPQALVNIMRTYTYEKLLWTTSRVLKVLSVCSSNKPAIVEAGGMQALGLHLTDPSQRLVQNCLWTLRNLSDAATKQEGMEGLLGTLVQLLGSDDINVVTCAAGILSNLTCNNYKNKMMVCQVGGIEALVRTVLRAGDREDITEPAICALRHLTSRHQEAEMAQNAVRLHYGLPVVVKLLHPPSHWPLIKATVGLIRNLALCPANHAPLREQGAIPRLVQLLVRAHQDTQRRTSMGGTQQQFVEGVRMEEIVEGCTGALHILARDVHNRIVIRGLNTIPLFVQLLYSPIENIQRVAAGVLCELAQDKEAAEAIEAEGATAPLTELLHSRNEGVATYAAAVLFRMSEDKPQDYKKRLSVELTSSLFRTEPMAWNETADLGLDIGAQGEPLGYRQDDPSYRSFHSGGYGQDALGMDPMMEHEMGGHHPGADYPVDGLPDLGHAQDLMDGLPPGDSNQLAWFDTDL

T2: full-length beta-Catenin (Uniprot ID P35222) (Homo sapiens (Human), UniProt P35222 2-781)
T2 construct: No tag is stated for the FP assay; also called bCat; B-Catenin
T2 sequence: T1 sequence

B1: I-173 (peptide)
peptide: XDAXDXAAFVXFWQ
modifications: not fully specified; as printed: Ac-PL3-Asp-Ala-B5-Asp-EtGA-Ala-Ala-Phe-Val-S8-Phe-Trp-Gln-NH2; N-terminal acetyl, C-terminal amide; PL3(1), B5(4), EtGA(6), S8(11); staples PL3-B5 and B5-S8 by olefin metathesis
notes: stapled peptide
B2: I-172 (peptide)
peptide: XDAXDXAAFVXFWQ
modifications: not fully specified; as printed: Ac-PL3-Asp-Ala-B5-Asp-EtGA-Ala-Ala-Phe-Val-S8-Phe-Trp-Gln-NH2; N-terminal acetyl, C-terminal amide; PL3(1), B5(4), EtGA(6), S8(11); staples PL3-B5 and B5-S8 by olefin metathesis
notes: stapled peptide
B3: I-495 (peptide)
peptide: XDIXDEAAFQXFXN
modifications: not fully specified; Ac-PL3-Asp-Ile-B5-Asp-Glu-Ala-Ala-Phe-Gln-S8-Phe-BztA-Asn-NH2; N-terminal acetyl, C-terminal amide; PL3(1)-B5(4) and B5(4)-S8(11) stapled by olefin metathesis; BztA at 13
notes: Stapled (stitched) peptide composition
B4: I-475 (peptide)
peptide: XDIXDEAAFNXFXQ
modifications: not fully specified; Ac-PL3-Asp-aIle-B5-Asp-Glu-Ala-Ala-Phe-Asn-S8-Phe-BztA-Gln-NH2; N-terminal acetyl, C-terminal amide; PL3(1)-B5(4) and B5(4)-S8(11) stapled by olefin metathesis; aIle at 3; BztA at 13
notes: Stapled peptide; this is the earlier eluting HPLC peak (staple isomer composition)
B5: I-479 (peptide)
peptide: XDAXDEAAFNXFXH
modifications: not fully specified; Ac-PL3-Asp-Ala-B5-Asp-Glu-Ala-Ala-Phe-Asn-S8-Phe-BztA-1MeH-NH2; N-terminal acetyl, C-terminal amide; PL3(1)-B5(4) and B5(4)-S8(11) stapled by olefin metathesis; BztA at 13; 1MeH at 14
notes: Stapled peptide; this is the later eluting HPLC peak (staple isomer composition)
B6: I-476 (peptide)
peptide: XDIXDEAAFNXFXQ
modifications: not fully specified; Ac-PL3-Asp-aIle-B5-Asp-Glu-Ala-Ala-Phe-Asn-S8-Phe-BztA-Gln-NH2; N-terminal acetyl, C-terminal amide; PL3(1)-B5(4) and B5(4)-S8(11) stapled by olefin metathesis; aIle at 3; BztA at 13
notes: as for B5
B7: I-478 (peptide)
peptide: XDAXDEAAFNXFXH
modifications: not fully specified; Ac-PL3-Asp-Ala-B5-Asp-Glu-Ala-Ala-Phe-Asn-S8-Phe-BztA-1MeH-NH2; N-terminal acetyl, C-terminal amide; PL3(1)-B5(4) and B5(4)-S8(11) stapled by olefin metathesis; BztA at 13; 1MeH at 14
notes: as for B4
B8: I-494 (peptide)
peptide: XDAXDEAAFQXFXQ
modifications: not fully specified; Ac-PL3-Asp-Ala-B5-Asp-Glu-Ala-Ala-Phe-Gln-S8-Phe-BztA-DGIn-NH2 (so in the source); D-Gln at 14); N-terminal acetyl, C-terminal amide; PL3(1)-B5(4) and B5(4)-S8(11) stapled by olefin metathesis; BztA at 13
notes: as for B3
B9: I-496 (peptide)
peptide: Ac-[αAllylPro]DA[B5(17)][hSer]EAAFQ[S8]F[Bta]Q-NH2
modifications: staple 1-4, 4-11; not fully specified; printed as Ac-PL3-Asp-Ala-B5-Hse-Glu-Ala-Ala-Phe-Gln-S8-Phe-BztA-Gln-NH2
notes: Stapled peptide; this is the first eluting HPLC peak (staple isomer composition)
B10: I-493 (peptide)
peptide: XDAXDEAAFQXFXS
modifications: not fully specified; Ac-PL3-Asp-Ala-B5-Asp-Glu-Ala-Ala-Phe-Gln-S8-Phe-BztA-DSer-NH2; N-terminal acetyl, C-terminal amide; PL3(1)-B5(4) and B5(4)-S8(11) stapled by olefin metathesis; BztA at 13; D-Ser at 14
notes: as for B3
B11: I-491 (peptide)
peptide: Ac-[αAllylPro]DA[B5(17)]DEAAFQ[S8]F[Bta][hSer]-NH2
modifications: staple 1-4, 4-11; also: earlier eluting HPLC peak, E/Z not assigned
notes: as for B4
B12: I-498 (peptide)
peptide: Ac-[αAllylPro]DA[B5(6)][hSer]EAAFQ[S8]F[Bta]Q-NH2
modifications: staple 1-4, 4-11; not fully specified; printed as Ac-PL3-Asp-Ala-B5-Hse-Glu-Ala-Ala-Phe-Gln-S8-Phe-BztA-Gln-NH2
notes: Stapled peptide; this is the third eluting HPLC peak (staple isomer composition)
B13: I-492 (peptide)
peptide: Ac-[αAllylPro]DA[B5(17)]DEAAFQ[S8]F[Bta][hSer]-NH2
modifications: staple 1-4, 4-11; also: later eluting HPLC peak, E/Z not assigned
notes: as for B5
B14: I-497 (peptide)
peptide: Ac-[αAllylPro]DA[B5(6)][hSer]EAAFQ[S8]F[Bta]Q-NH2
modifications: staple 1-4, 4-11; not fully specified; printed as Ac-PL3-Asp-Ala-B5-Hse-Glu-Ala-Ala-Phe-Gln-S8-Phe-BztA-Gln-NH2
notes: Stapled peptide; this is the second eluting HPLC peak (staple isomer composition)

Molecular target: T1, full-length beta-Catenin (Uniprot ID …)
Assay: fluorescence polarization competition; full-length beta-catenin with 5FAM-TCF4(10-53) probe as competitor
Protocol: (§1) The plate was incubated protected from light for 60 minutes at 20° C. prior to read. Reads were performed on a CLARIOstar plate reader (BMG Labtech) in duplicate, and data were fitted to a 1:1 binding model with hill slope using an in-house script. All provided concentrations are final concentrations.

Row | EC50 [nM] | Binder
1 | 3120 | B1
2 | 5000 | B2

Molecular target: T2, full-length beta-Catenin (Uniprot ID …)
Assay: as above
Protocol: as §1

Row | IC50 [nM] | Binder
3 | 62 | Ac-[αAllylPro]DI[B5(29)]DEAAFN[S8]F[Bta]H-NH2 (staple 1-4, 4-11, Stapled (stitched) peptide composition) [I-472]
4 | 181 | B3
5 | 102 | B4
6 | 27 | B5
7 | 48 | B6
8 | 71 | B7
9 | 52 | Ac-[αAllylPro]DI[B5(6)]DEAAFQ[S8]F[Bta]H-NH2 (staple 1-4, 4-11, Stapled (stitched) peptide composition) [I-471]
10 | 82 | B8
11 | 5000 | B9
12 | 88 | B10
13 | 153 | B11
14 | 5000 | B12
15 | 119 | Ac-[αAllylPro]DT[B5(29)]DEAAFQ[S8]F[Bta]Q-NH2 (staple 1-4, 4-11, Stapled (stitched) peptide composition) [I-477]
16 | 53 | B13
17 | 5000 | B14

Reference: patent publication US20240116985A1 (published 2024)
